Legend:
[1] = molecular target: axolotl Melanocortin-3 receptor, N-terminally 3×HA tagged (Ambystoma mexicanum (Mexican axolotl))
[2] = molecular target: axolotl Melanocortin-4 receptor, N-terminally 3×HA tagged (Ambystoma mexicanum (Mexican axolotl))

How did the cAMP luminescent assay (pCRE-Luc, Dual-Glo) in HEK293T, logEC50; MC3R:MRAP2 plasmid ratio 1:0 [1] turn out when “Human α-melanocyte stimulating hormone (peptide)” was run?
Its cAMP luminescent assay (pCRE-Luc, Dual-Glo) in HEK293T, logEC50; MC3R:MRAP2 plasmid ratio 1:0 is -9.95 log M.

What about the cAMP luminescent assay (pCRE-Luc, Dual-Glo) in HEK293T, logEC50; MC3R:MRAP2 plasmid ratio 1:1 [1] of the same substance?
Its cAMP luminescent assay (pCRE-Luc, Dual-Glo) in HEK293T, logEC50; MC3R:MRAP2 plasmid ratio 1:1 is -9.29 log M.

And the cAMP luminescent assay (pCRE-Luc, Dual-Glo) in HEK293T, logEC50; MC3R:MRAP2 plasmid ratio 1:3 [1]?
The cAMP luminescent assay (pCRE-Luc, Dual-Glo) in HEK293T, logEC50; MC3R:MRAP2 plasmid ratio 1:3 was -9.04 log M.

And the cAMP luminescent assay (pCRE-Luc, Dual-Glo) in HEK293T, logEC50; MC3R:MRAP2 plasmid ratio 1:6 [1]?
Its cAMP luminescent assay (pCRE-Luc, Dual-Glo) in HEK293T, logEC50; MC3R:MRAP2 plasmid ratio 1:6 is -8.98 log M.

And the cAMP luminescent assay (pCRE-Luc, Dual-Glo) in HEK293T, logEC50; MC4R:MRAP2 plasmid ratio 1:0 [2]?
The cAMP luminescent assay (pCRE-Luc, Dual-Glo) in HEK293T, logEC50; MC4R:MRAP2 plasmid ratio 1:0 was -9.84 log M.

What about the cAMP luminescent assay (pCRE-Luc, Dual-Glo) in HEK293T, logEC50; MC4R:MRAP2 plasmid ratio 1:1 [2] of the same substance?
Its cAMP luminescent assay (pCRE-Luc, Dual-Glo) in HEK293T, logEC50; MC4R:MRAP2 plasmid ratio 1:1 is -10 log M.

What about the cAMP luminescent assay (pCRE-Luc, Dual-Glo) in HEK293T, logEC50; MC4R:MRAP2 plasmid ratio 1:3 [2] of the same substance?
The cAMP luminescent assay (pCRE-Luc, Dual-Glo) in HEK293T, logEC50; MC4R:MRAP2 plasmid ratio 1:3 was -9.37 log M.

What about the cAMP luminescent assay (pCRE-Luc, Dual-Glo) in HEK293T, logEC50; MC4R:MRAP2 plasmid ratio 1:6 [2] of the same substance?
The cAMP luminescent assay (pCRE-Luc, Dual-Glo) in HEK293T, logEC50; MC4R:MRAP2 plasmid ratio 1:6 was -9.06 log M.

How did the cAMP luminescent assay (pCRE-Luc, Dual-Glo) in HEK293T, logEC50; MC3R:MRAP2 plasmid ratio 1:0 [1] turn out when “human adrenocorticotropin ACTH (1–24) (peptide)” was run?
Its cAMP luminescent assay (pCRE-Luc, Dual-Glo) in HEK293T, logEC50; MC3R:MRAP2 plasmid ratio 1:0 is -9.51 log M.

What about the cAMP luminescent assay (pCRE-Luc, Dual-Glo) in HEK293T, logEC50; MC3R:MRAP2 plasmid ratio 1:1 [1] of the same substance?
Its cAMP luminescent assay (pCRE-Luc, Dual-Glo) in HEK293T, logEC50; MC3R:MRAP2 plasmid ratio 1:1 is -9.47 log M.

And the cAMP luminescent assay (pCRE-Luc, Dual-Glo) in HEK293T, logEC50; MC3R:MRAP2 plasmid ratio 1:3 [1]?
The cAMP luminescent assay (pCRE-Luc, Dual-Glo) in HEK293T, logEC50; MC3R:MRAP2 plasmid ratio 1:3 was -9.4 log M.

And the cAMP luminescent assay (pCRE-Luc, Dual-Glo) in HEK293T, logEC50; MC3R:MRAP2 plasmid ratio 1:6 [1]?
Its cAMP luminescent assay (pCRE-Luc, Dual-Glo) in HEK293T, logEC50; MC3R:MRAP2 plasmid ratio 1:6 is -9.55 log M.

And the cAMP luminescent assay (pCRE-Luc, Dual-Glo) in HEK293T, logEC50; MC4R:MRAP2 plasmid ratio 1:0 [2]?
Its cAMP luminescent assay (pCRE-Luc, Dual-Glo) in HEK293T, logEC50; MC4R:MRAP2 plasmid ratio 1:0 is -9.62 log M.

And the cAMP luminescent assay (pCRE-Luc, Dual-Glo) in HEK293T, logEC50; MC4R:MRAP2 plasmid ratio 1:1 [2]?
The cAMP luminescent assay (pCRE-Luc, Dual-Glo) in HEK293T, logEC50; MC4R:MRAP2 plasmid ratio 1:1 was -10.1 log M.

And the cAMP luminescent assay (pCRE-Luc, Dual-Glo) in HEK293T, logEC50; MC4R:MRAP2 plasmid ratio 1:3 [2]?
Its cAMP luminescent assay (pCRE-Luc, Dual-Glo) in HEK293T, logEC50; MC4R:MRAP2 plasmid ratio 1:3 is -10.1 log M.

And the cAMP luminescent assay (pCRE-Luc, Dual-Glo) in HEK293T, logEC50; MC4R:MRAP2 plasmid ratio 1:6 [2]?
Its cAMP luminescent assay (pCRE-Luc, Dual-Glo) in HEK293T, logEC50; MC4R:MRAP2 plasmid ratio 1:6 is -10.3 log M.

Reference: article PMC8891371
